For experiment [1], the target named is T1, short isoform of VEGF (8-109) (UniProt P15692 214-315).
T1 construct: range 8-109; Immobilized by amine coupling for SPR; in solution for the fluorescence assay; also called vascular endothelial growth factor
T1 sequence (looked up): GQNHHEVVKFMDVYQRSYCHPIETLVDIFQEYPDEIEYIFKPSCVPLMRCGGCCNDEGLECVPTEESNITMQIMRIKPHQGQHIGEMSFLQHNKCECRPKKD
The experiment is described as follows: calculated from k-1 and k1, 0 M NaCl data.

For experiment [2], the target named is T1, short isoform of VEGF (8-109). The experiment is described as follows: fluorescence-based association assay at varied salt concentration. The method, then:
(§1) In the experiments described here, the fluorescence emission intensity (λexcitation=295 nm; λₑₘᵢₛₛᵢₒₙ=340 nm, 16 nm bandpass) was measured using an 8000-series SLM-Aminco spectrophotometer (THERMOSPECTRONIC®) as VEGF was added to a stirred cuvette containing approximately 10 nM Fab in 25 mM Tris, pH 7.2, held at 37° C.

For experiment [3] the target is unchanged. The experiment is described as follows: SPR (BIAcore), VEGF immobilized, 25 mM Tris, 150 mM NaCl, 25 C. In general terms: SPR reads the build-up and loss of mass on a sensor chip optically.
Experiment [4] has the same target. Put plainly: SPR (BIAcore), VEGF immobilized, 25 mM Tris pH 7.2, 0 M NaCl, 37 C. How it is done: (§2) Dissociation rates were measured by surface plasmon resonance on a BIACORE-2000® instrument (BIAcore, Inc.) as described previously (Muller et al. Structure 6(9): 1153-67 (1998)). VEGF was immobilized by amine coupling to a B1 chip at approximately 10 resonance-response units. Fab binding was measured at 1 μM, 500 nM, 250 nM, 125 nM, 62.5 nM, and 31.3 nM. Dissociation was calculated assuming a one-to-one binding model. All experiments were performed at 37° C. in phosphate buffered saline solution, pH 7.2, containing 0.05% Tween-20, 0.01% NaN3 and at a flow rate of 20 μL min⁻¹.
(§3) Residues are numbered according the Kabat system (Kabat et al. Sequences of Proteins of Immunological Interest, 5th Edition., National Institute of Health, Bethesda, Md. (1991)). k₁ determined by the fluorescence-based assay (±standard deviation of three experiments). k₋₁ determined by surface plasmon resonance (±standard deviation of 12 experiments). k₁ and k₋₁ (0 M NaCl) experiments were performed in 25 mM Tris, pH 7.2, at 37° C. k₋₁ (0.15 M NaCl) experiments performed in 25 mM Tris, 150 mM NaCl, at 25° C.

For experiment [5] the target is unchanged. Put plainly: fluorescence-based association assay in solution, 25 mM Tris pH 7.2, 37 C. The method, then: as §1
Experiment [6] has the same target. The description is as above. How it is done: as §1, §3
This is another data set of the same source.

Experiment [7] shares this target. The experiment is described as above. The method, then:
as §1
(§4) Residues are numbered according the Kabat system (Kabat et al. Sequences of Proteins of Immunological Interest, 5th Edition., National Institute of Health, Bethesda, Md. (1991)). k₁ determined by the fluorescence-based assay (±standard deviation of three experiments, wild-type only). k₋₁ determined by surface plasmon resonance (±standard deviation of 12 experiments). k₁ and k₋₁ (0 M NaCl) experiments were performed in 25 mM Tris, pH 7.2, at 37° C. k₋₁ (0.15 M NaCl) experiments performed in 25 mM Tris, 150 mM NaCl, at 25° C.
This is another data set of the same source.

Experiment [8] has the same target. Put plainly: calculated from k-1 and k1, 0 M NaCl data. The source holds these as a separate data set.
Experiment [9] has the same target. The experiment is described as follows: SPR (BIAcore), VEGF immobilized, 25 mM Tris, 150 mM NaCl, 25 C. The source holds these as a separate data set.
The target is the same in experiment [10]. Put plainly: SPR (BIAcore), VEGF immobilized, 25 mM Tris pH 7.2, 0 M NaCl, 37 C. How it is done:
as §2, §4
This is another data set of the same source.

Like-named read-outs stand apart in the source and are kept apart here.

By Kd is commonly meant a measure of binding affinity in units of concentration. In general, koff refers to a measure of how fast the partners let go of each other. A lower koff goes with slow dissociation. What is called kon is the second-order rate constant of association.

B1: 34-TKKT (VH-(T28D, S100aR)+VL-(S26T, Q27K, D28K, S30T)) (Fab, V domains shown)
VH: EVQLVESGGGLVQPGGSLRLSCAASGYDFTNYGMNWVRQAPGKGLEWVGWINTYTGEPTYAADFKRRFTFSLDTSKSTAYLQMNSLRAEDTAVYYCAKYPHYYGRSHWYFDVWGQGTLVTVSS
VL: DIQLTQSPSSLSASVGDRVTITCSATKKITNYLNWYQQKPGKAPKVLIYFTSSLHSGVPSRFSGSGSGTDFTLTISSLQPEDFATYYCQQYSTVPWTFGQGTKVEIKR
notes: Fab of Y0101 with both altered chains
Regarding B1, the Kd in [1] is 80 pM. In [2], the “fold difference in association rate against Y0101 in 150 mM NaCl” value is less than 2 fold. Moreover, the koff in [3] was 2e-05 s⁻¹; in experiment [4], 0.00026 s⁻¹. Also, the “fold higher association rate than Y0101” value in experiment [5] worked out at 6 fold. Also, the kon in [6] was 3.3e+06 M⁻¹ s⁻¹.

B2: Fab Y0101 variant, light chain Y32R (Fab, V domains shown)
VH: EVQLVESGGGLVQPGGSLRLSCAASGYTFTNYGMNWVRQAPGKGLEWVGWINTYTGEPTYAADFKRRFTFSLDTSKSTAYLQMNSLRAEDTAVYYCAKYPHYYGSSHWYFDVWGQGTLVTVSS
VL: DIQLTQSPSSLSASVGDRVTITCSASQDISNRLNWYQQKPGKAPKVLIYFTSSLHSGVPSRFSGSGSGTDFTLTISSLQPEDFATYYCQQYSTVPWTFGQGTKVEIKR
notes: Fab of Y0101 with one light chain substitution
In turn, B2 came in with a kon in [7] of 710000 M⁻¹ s⁻¹.

B3: Fab Y0101 variant, heavy chain T28D, S100aR (Fab, V domains shown)
VH: EVQLVESGGGLVQPGGSLRLSCAASGYDFTNYGMNWVRQAPGKGLEWVGWINTYTGEPTYAADFKRRFTFSLDTSKSTAYLQMNSLRAEDTAVYYCAKYPHYYGRSHWYFDVWGQGTLVTVSS
VL: DIQLTQSPSSLSASVGDRVTITCSASQDISNYLNWYQQKPGKAPKVLIYFTSSLHSGVPSRFSGSGSGTDFTLTISSLQPEDFATYYCQQYSTVPWTFGQGTKVEIKR
notes: Fab; also called altered heavy chain T28D-S100aR
B3 had a koff in experiment [3] of 0.00011 s⁻¹. This molecule displayed a kon in experiment [6] of 1.4e+06 M⁻¹ s⁻¹.

B4: Fab Y0101 variant, light chain S26K, D28K, S30K (Fab, V domains shown)
VH: EVQLVESGGGLVQPGGSLRLSCAASGYTFTNYGMNWVRQAPGKGLEWVGWINTYTGEPTYAADFKRRFTFSLDTSKSTAYLQMNSLRAEDTAVYYCAKYPHYYGSSHWYFDVWGQGTLVTVSS
VL: DIQLTQSPSSLSASVGDRVTITCSAKQKIKNYLNWYQQKPGKAPKVLIYFTSSLHSGVPSRFSGSGSGTDFTLTISSLQPEDFATYYCQQYSTVPWTFGQGTKVEIKR
notes: Fab of Y0101 with several light chain substitutions
B4: the kon in [6] came out at 1.3e+06 M⁻¹ s⁻¹.

B5: Fab Y0101 variant, light chain L54K (Fab, V domains shown)
VH: EVQLVESGGGLVQPGGSLRLSCAASGYTFTNYGMNWVRQAPGKGLEWVGWINTYTGEPTYAADFKRRFTFSLDTSKSTAYLQMNSLRAEDTAVYYCAKYPHYYGSSHWYFDVWGQGTLVTVSS
VL: DIQLTQSPSSLSASVGDRVTITCSASQDISNYLNWYQQKPGKAPKVLIYFTSSKHSGVPSRFSGSGSGTDFTLTISSLQPEDFATYYCQQYSTVPWTFGQGTKVEIKR
notes: as for B2
As to B5, in [7], the kon amounted to 440000 M⁻¹ s⁻¹.

B6: Fab Y0101 variant, heavy chain Y99K (Fab, name in Kabat numbering, V domains shown)
VH: EVQLVESGGGLVQPGGSLRLSCAASGYTFTNYGMNWVRQAPGKGLEWVGWINTYTGEPTYAADFKRRFTFSLDTSKSTAYLQMNSLRAEDTAVYYCAKYPHYKGSSHWYFDVWGQGTLVTVSS
VL: DIQLTQSPSSLSASVGDRVTITCSASQDISNYLNWYQQKPGKAPKVLIYFTSSLHSGVPSRFSGSGSGTDFTLTISSLQPEDFATYYCQQYSTVPWTFGQGTKVEIKR
notes: Fab of Y0101 with one heavy chain substitution
For B6, in experiment [8], the Kd was 400 pM. The koff in experiment [9] was found to be 0.00014 s⁻¹; in experiment [10] it was 0.00015 s⁻¹. For the same molecule, the kon in experiment [7] is 380000 M⁻¹ s⁻¹.

B7: Fab Y0101 variant, light chain S26K, Q27K, D28N, S30T (Fab, V domains shown)
VH: EVQLVESGGGLVQPGGSLRLSCAASGYTFTNYGMNWVRQAPGKGLEWVGWINTYTGEPTYAADFKRRFTFSLDTSKSTAYLQMNSLRAEDTAVYYCAKYPHYYGSSHWYFDVWGQGTLVTVSS
VL: DIQLTQSPSSLSASVGDRVTITCSAKKNITNYLNWYQQKPGKAPKVLIYFTSSLHSGVPSRFSGSGSGTDFTLTISSLQPEDFATYYCQQYSTVPWTFGQGTKVEIKR
notes: as for B4
On to B7, for which, in experiment [6], the kon is 610000 M⁻¹ s⁻¹.

B8: Fab Y0101 variant, light chain S52K, S53K, L54T (Fab, V domains shown)
VH: EVQLVESGGGLVQPGGSLRLSCAASGYTFTNYGMNWVRQAPGKGLEWVGWINTYTGEPTYAADFKRRFTFSLDTSKSTAYLQMNSLRAEDTAVYYCAKYPHYYGSSHWYFDVWGQGTLVTVSS
VL: DIQLTQSPSSLSASVGDRVTITCSASQDISNYLNWYQQKPGKAPKVLIYFTKKTHSGVPSRFSGSGSGTDFTLTISSLQPEDFATYYCQQYSTVPWTFGQGTKVEIKR
notes: as for B4
B8 came in with a kon in experiment [6] of 1.3e+06 M⁻¹ s⁻¹.

B9: Fab Y0101 variant, heavy chain Y99R (Fab, name in Kabat numbering, V domains shown)
VH: EVQLVESGGGLVQPGGSLRLSCAASGYTFTNYGMNWVRQAPGKGLEWVGWINTYTGEPTYAADFKRRFTFSLDTSKSTAYLQMNSLRAEDTAVYYCAKYPHYRGSSHWYFDVWGQGTLVTVSS
VL: DIQLTQSPSSLSASVGDRVTITCSASQDISNYLNWYQQKPGKAPKVLIYFTSSLHSGVPSRFSGSGSGTDFTLTISSLQPEDFATYYCQQYSTVPWTFGQGTKVEIKR
notes: as for B6
In the case of B9, the Kd in experiment [8] was 200 pM. The koff stood at 0.00016 s⁻¹ in experiment [9] and 0.00014 s⁻¹ in experiment [10]. Also, the kon in experiment [7] stood at 600000 M⁻¹ s⁻¹.

B10: Fab Y0101 variant, heavy chain T28K (Fab, name in Kabat numbering, V domains shown)
VH: EVQLVESGGGLVQPGGSLRLSCAASGYKFTNYGMNWVRQAPGKGLEWVGWINTYTGEPTYAADFKRRFTFSLDTSKSTAYLQMNSLRAEDTAVYYCAKYPHYYGSSHWYFDVWGQGTLVTVSS
VL: DIQLTQSPSSLSASVGDRVTITCSASQDISNYLNWYQQKPGKAPKVLIYFTSSLHSGVPSRFSGSGSGTDFTLTISSLQPEDFATYYCQQYSTVPWTFGQGTKVEIKR
notes: as for B6
B10: the kon in experiment [7] is 360000 M⁻¹ s⁻¹.

B11: Fab Y0101 variant, heavy chain S100aR (Fab, name in Kabat numbering, V domains shown)
VH: EVQLVESGGGLVQPGGSLRLSCAASGYTFTNYGMNWVRQAPGKGLEWVGWINTYTGEPTYAADFKRRFTFSLDTSKSTAYLQMNSLRAEDTAVYYCAKYPHYYGRSHWYFDVWGQGTLVTVSS
VL: DIQLTQSPSSLSASVGDRVTITCSASQDISNYLNWYQQKPGKAPKVLIYFTSSLHSGVPSRFSGSGSGTDFTLTISSLQPEDFATYYCQQYSTVPWTFGQGTKVEIKR
notes: as for B6
With B11, the Kd in experiment [8] is 300 pM. For the same molecule, the koff stood at 7e-05 s⁻¹ in [9] and 0.00024 s⁻¹ in [10]. Moreover, the kon in experiment [7] was determined as 870000 M⁻¹ s⁻¹.

B12: Fab Y0101 variant, heavy chain E56K (Fab, name in Kabat numbering, V domains shown)
VH: EVQLVESGGGLVQPGGSLRLSCAASGYTFTNYGMNWVRQAPGKGLEWVGWINTYTGKPTYAADFKRRFTFSLDTSKSTAYLQMNSLRAEDTAVYYCAKYPHYYGSSHWYFDVWGQGTLVTVSS
VL: DIQLTQSPSSLSASVGDRVTITCSASQDISNYLNWYQQKPGKAPKVLIYFTSSLHSGVPSRFSGSGSGTDFTLTISSLQPEDFATYYCQQYSTVPWTFGQGTKVEIKR
notes: as for B6
With B12, in experiment [8], the Kd is 900 pM. Also, in experiment [10], the koff amounted to 0.00044 s⁻¹. This molecule displayed a kon in experiment [7] of 480000 M⁻¹ s⁻¹.

(Values after patent US20030224397A1 (Genentech, published 2003).)
